# Measured values from IntAct's records for PubMed 18854162.
# B1: CCCH-type zinc finger protein oma-1 (Caenorhabditis elegans), G5EC86 (parent)
# chain: MNVNGENNEKIDEHHLESSLAGVPTLPVSPLDHAKDLSQTNPNAQIGDLVTQTANLIAIKKQLLEDIAFNQHIQSMQVRAIQSFPQNNQVAPPFQQFDPRRRGLARMQKPESYKTVICQAWLESKTCSFADNCRFAHGEEELRPTFVEPLQNNKYKTKLCDKYTTTGLCPYGKRCLFIHPDHGPNAYIRADKLLEVSQRHALADIRDQMEQHIMTNGRIAAPPLSAIQHPLEMFARPSTPDEPAAKLPLGPTPVSTRGPRYELPTKELHDAEGAMTYPPSRWPLDPSMFALDAWNMAHRPASPLDSMVLGSAPNAGSFGMLGKQNTPGGVSGYSSAGSTPSQDLSSSSLNAASAAAAAAYFANSAVAQSLLMKSVATDPMMSCNGPFSPMPGFDQLAENMTKHLNLW
# partner: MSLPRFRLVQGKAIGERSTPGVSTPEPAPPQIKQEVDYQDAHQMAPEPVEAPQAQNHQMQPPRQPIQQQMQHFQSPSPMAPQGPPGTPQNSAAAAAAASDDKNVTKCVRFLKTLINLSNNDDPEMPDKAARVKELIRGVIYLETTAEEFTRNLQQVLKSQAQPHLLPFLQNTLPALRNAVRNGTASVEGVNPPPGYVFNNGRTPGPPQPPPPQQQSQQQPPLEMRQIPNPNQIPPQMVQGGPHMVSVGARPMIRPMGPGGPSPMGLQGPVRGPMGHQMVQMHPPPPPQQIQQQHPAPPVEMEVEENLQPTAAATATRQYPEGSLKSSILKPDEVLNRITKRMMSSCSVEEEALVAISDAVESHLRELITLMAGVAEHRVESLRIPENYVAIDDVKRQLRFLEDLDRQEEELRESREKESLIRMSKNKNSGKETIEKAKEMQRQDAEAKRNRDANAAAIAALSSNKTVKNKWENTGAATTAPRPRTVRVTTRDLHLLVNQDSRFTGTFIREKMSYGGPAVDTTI
# Variants of: B1
# Settings: with taf4_caeel taf-4, O61707
row,Variant,effect of a mutation on the interaction
1,MNVNGENNEKIDEHHLESSLAGVPTLPVSPLDHAKDLSQTNPNAQIGDLVTQTANLIAIKKQLLEDIAFNQHIQSMQVRAIQSFPQNNQVAPPFQQFDPRRRGLARMQKPESYKTVICQAWLESKTCSFADNCRFAHGEEELRPTFVEPLQNNKYKTKLCDKYTTTGLCPYGKRCLFIHPDHGPNAYIRADKLLEVSQRHALADIRDQMEQHIMTNGRIAAPPLSAIQHPLEMFARPSAPDEPAAKLPLGPTPVSTRGPRYELPTKELHDAEGAMTYPPSRWPLDPSMFALDAWNMAHRPASPLDSMVLGSAPNAGSFGMLGKQNTPGGVSGYSSAGSTPSQDLSSSSLNAASAAAAAAYFANSAVAQSLLMKSVATDPMMSCNGPFSPMPGFDQLAENMTKHLNLW [T239A],decreasing interaction
